Reference: US12312411 (Takeda / Millennium, dated 2025)

How the values were obtained:
[1] = target: cynomolgus CD38 on cells expressing recombinant cynomolgus CD38 (cynomolgus, UniProt Q5VAN0 1-301)
[2] = target: T1, human CD38 on human multiple myeloma MOLP-8 cells (human, UniProt P28907 1-300); assay: cell-based or functional assay
[3] = target: T1, human CD38 on human multiple myeloma …; assay: flow cytometry, IgG1 at 100 nM on MOLP-8 cells, MFI over secondary-only control
[4] = target: T1, human CD38 on human multiple myeloma …; assay: flow cytometry titration of IgG1 on MOLP-8 cells, nonlinear fit
[5] = target: recombinant human CD38 (purified, plate-coated) (human, UniProt P28907 43-300); assay: ELISA, plate-coated recombinant CD38, scFv-SLTA fusion titrated
[6] = target: recombinant cynomolgus monkey CD38 (purified, plate-coated) (cynomolgus, UniProt Q5VAN0 44-301); assay: ELISA, plate-coated recombinant cynomolgus CD38, scFv-SLTA fusion titrated

Row | Binder | FOB (fold-over-background of MFI) [1] | % ADCC (mean) [2] | % CDC (mean) [2] | FOB (fold-over-background of MFI) [3] | Kd [4] | Kd [5] | binding result [6]
1 | CD38TM6 formatted into human IgG1 (antibody, V domains shown) VH: EVQLLESGGGLVQPGGSLRLSCAASGFTFDDYGMTWVRQAPGKGLEWVSGINWNGGSTGYADSVKGRFTISRDNSKNTLYLQMNSLRAEDTAVYYCARGGLFHDSSGYYFGHWGQGTLVTVSS VL: QSVLTQPPSASGTPGQRVTISCSGSSSNIGNSYVSWYQQLPGTAPKLLIYRNNQRPSGVPDRFSGSKSGTSASLAISGLRSEDEADYYCSAWDDNLSVLFGGGTKLTVL | 176 fold over background | 50.4% | 34.3% | 104 fold over background | 4.6 nM | – | –
2 | CD38TM1 formatted into human IgG1 (antibody, V domains shown) VH: EVQLLESGGGLVQPGGSLRLSCAASGFTFSDYYMSWVRQAPGKGLEWVSAISGSGGSTYYADSVKGRFTISRDNSKNTLYLQMNSLRAEDTAVYYCAREHSNYFYGMDVWGQGTLVTVSS VL: QSVLTQPPSASGTPGQRVTISCSGSSSNIGSNYVYWYQQLPGTAPKLLIYGNSNRPSGVPDRFSGSKSGTSASLAISGLRSEDEADYYCQSYDSSLSGSGVFGGGTKLTVLG | – | 29% | 15% | – | 32 nM | – | –
3 | CD38TM5 formatted into human IgG1 (antibody, V domains shown) VH: EVQLLESGGGLVQPGGSLRLSCAASGFTFSDYYMNWIRQAPGKGLEWVSSISSSSSYIYYADSVKGRFTISRDNSKNTLYLQMNSLRAEDTAVYYCATEGPYYLYGFDIWGQGTLVTVSS VL: QSVLTQPPSASGTPGQRVTISCSGSSSNIGSNYVYWYQQLPGTAPKLLIYGNSNRPSGVPDRFSGSKSGTSASLAISGLRSEDEADYYCQSYDNTLSGVIFGGGTKLTVLG | 104 fold over background | 35.2% | 4.7% | 550 fold over background | 34 nM | – | –
4 | CD38TM3 formatted into human IgG1 (antibody, V domains shown) VH: QVQLVQSGAEVKKPGESLKISCKGSGYSFTSYWIGWVRQMPGKGLEWMGIIYPGDSDTRYSPSFQGQVTISADKSISTAYLQWSSLKASDTAMYYCARGPSTGFWSGNYFDYWGQGTLVTVSS VL: QTVVTQEPSLTVSPGETVTLTCASSTGAVTSGFYPNWFQQKPGQAPRALIYATNNKYSWTPARFSGSLLGDKAALTLSRVQPEDEADYYCLVYYDGAWVFGGGTKLTVLG | 528 fold over background | – | – | – | – | – | –
5 | CD38 targeting reference molecule #1 (CD38TR1) scFv fused to Shiga toxin A subunit (CD38TR1-SLTA) (scFv) MKEFTLDFSTAKTYVDSLNVIRSAIGTPLQTISSGGTSLLMIDSGSGDNLFAVDVRGIDPEEGRFNNLRLIVERNNLYVTGFVNRTNNVFYRFADFSHVTFPGTTAVTLSGDSSYTTLQRVAGISRTGMQINRHSLTTSYLDLMSHSGTSLTQSVARAMLRFVTVTAEALRFRQIQRGFRTTLDDLSGRSYVMTAEDVDLTLNWGRLSSVLPDYHGQDSVRVGRISFGSINAILGSVALILNCHHHASAVAAEFPKPSTPPGSSGGAPDIQMTQSPSSLSASVGDRVTITCKASEDIYNRLTWYQQKPGKAPKLLISGATSLETGVPSRFSGSGSGTDFTFTISSLQPEDIATYYCQQYWSNPYTFGQGTKVEIKGGGGSQVQLQESGPGLVRPSQTLSLTCTVSGFSLTSYGVHWVRQPPGRGLEWIGVMWRGGSTDYNAAFMSRLNITKDNSKNQVSLRLSSVTAADTAVYYCAKSMITTGFVMDSWGQGSLVTVSS | – | – | – | – | – | 7.7 ng/mL | no binding
6 | CD38TM2 formatted into human IgG1 (antibody, V domains shown) VH: EVQLLESGGGLVQPGGSLRLSCAASGFTFSSYWMHWVRQAPGKGLEWVSAISGSGGGTFYADSVKGRFTISRDNSKNTLYLQMNSLRAEDTAVYYCAREGETSFGLDVWGQGTLVTVSS VL: QSVLTQPPSASGTPGQRVTISCSGSSSNIGGNYVYWYQQLPGTAPKLLIYRNNQRPSGVPDRFSGSKSGTSASLAISGLRSEDEADYYCQSYDSSLSVSVFGGGTKLTVLG | 272 fold over background | – | – | – | – | – | –
